Molecular target: human LY6H expressed on 293T cells (plasmid BBP491, M1-P140 plus Myc-DDK) (human) (UniProt O94772)
Experiment: on-cell affinity by flow cytometry: unconjugated 12G7 (0.05-100 nM) competes with 1 nM PE-conjugated 12G7 on 293T cells expressing human LY6H; table row 293T-huLY6H

B1: 12G7 (antibody, V domains shown)
VH: QVQLQQWGAGLLKPSETLSLTCAVYGGSFSGYYWSWIRQPPGKGLEWIGEINHSGSTYYNPSLKSRVTMSVDTSKNQFSLKLSSVTAADTAVYYCAKRWELGAFDIWGQGTMVTVSS
VL: DIQMTQSPSSLSASVGDRVTITCRASQGISNYLAWYQQKPGKVPKLLIYAASTLQSGVPSRFSGSGSGTDFTLTISSLQPEDVATYYCQKYNSAPRTFGQGTKLEIK
Kd: 9.9 nM

Source: patent publication US20250319180A1
